From patent publication US20230158117A1, “COMPOSITION FOR PREVENTION OR TREATMENT OF […] COMPRISING TRIGONAL GLUCAGON/GLP-1/GIP RECEPTOR AGONIST OR CONJUGATE THEREOF AND METHOD USING THE SAME” (HANMI PHARM. CO., LTD., priority 2020, published 2023)
Blank lines part the entries; values can stand above or below the molecule they belong to. Bridges are numbered along the chain shown (N, C = ends). Where no end group is shown, it is not given here. [ ]: non-standard residue; d: D form. Aib = CC(C)(N)C(=O)O

Columns and labels:
human GCG receptor = molecular target: T1, human GCG receptor (Homo sapiens, UniProt P47871); experiment: In vitro activity (cAMP accumulation, LANCE cAMP kit) in CHO cells expressing human GCG receptor; type: cell-based; details: long-acting conjugate, relative potency from cAMP EC50 compared to human GCG
T1 construct: expressed in transfected cells; host or cells: Chinese hamster ovary (CHO)
Procedure: (§1) Activities of the triple agonists and the long-acting conjugates thereof respectively prepared in Examples 1 and 2 were measured using transformed cell lines in which a GLP-1 receptor, a glucagon (GCG) receptor, and a GIP receptor were transformed by way of a method of measuring in vitro cellular activities.
(§2) The cell lines were transformed such that genes for the human GLP-1 receptor, the human GCG receptor, and the human GIP receptor were each expressed in Chinese hamster ovary (CHO), and were suitable for measuring activities of GLP-1, GCG, and GIP, respectively. Therefore, the activity for each part was measured using each of the transformed cell lines.
(§3) For measurement of the activity of the triple agonists and the long-acting conjugates thereof respectively prepared in Examples 1 and 2 to GCG, human GCG was subjected to a 4-fold serial dilution from 50 nM to 0.000048 nM, and the triple agonists and the long-acting conjugates thereof respectively prepared in Examples 1 and 2 were subjected to a 4-fold serial dilution from 400 nM to 0.00038 nM. A cultured solution was removed from the cultured CHO cells in which the human GCG receptor was expressed, and each of the serially diluted substances was added to the CHO cells in an amount of 5 μL. Then, a buffer solution including cAMP antibody was added thereto in an amount of 5 μL and cultured at room temperature for 15 minutes. Thereafter, a detection mix including a cell lysis buffer was added thereto in an amount of 10 μL for lysis of the cells, followed by reaction at room temperature for 90 minutes. Upon completion of the reaction, the cell lysates were applied to a LANCE cAMP kit (PerkinElmer, USA) to calculate EC50 values via accumulated cAMP, and the values were compared with each other.

human GIP receptor = molecular target: T2, human GIP receptor (Homo sapiens, UniProt P48546); experiment: In vitro activity (cAMP accumulation, LANCE cAMP kit) in CHO cells expressing human GIP receptor; type: cell-based; details: long-acting conjugate, relative potency from cAMP EC50 compared to human GIP
T2 construct: expressed in transfected cells; host or cells: Chinese hamster ovary (CHO)
T2 sequence (P48546 22-466): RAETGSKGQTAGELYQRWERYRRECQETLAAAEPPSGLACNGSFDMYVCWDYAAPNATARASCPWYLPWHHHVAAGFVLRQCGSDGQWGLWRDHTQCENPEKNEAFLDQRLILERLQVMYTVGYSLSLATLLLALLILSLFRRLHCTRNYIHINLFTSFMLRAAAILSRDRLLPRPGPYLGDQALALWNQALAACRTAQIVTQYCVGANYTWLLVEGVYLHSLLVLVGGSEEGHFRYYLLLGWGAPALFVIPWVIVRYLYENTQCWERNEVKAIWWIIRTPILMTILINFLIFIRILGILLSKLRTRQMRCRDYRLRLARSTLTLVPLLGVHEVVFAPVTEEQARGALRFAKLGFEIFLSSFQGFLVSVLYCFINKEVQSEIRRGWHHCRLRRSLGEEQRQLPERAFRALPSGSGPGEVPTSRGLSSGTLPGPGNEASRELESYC
Procedure: as §1, §2
as §3, with “GIP,” for “GCG,”, “GIP” for “GCG”

human GLP-1 receptor = human GLP-1 receptor (Homo sapiens, UniProt P43220); experiment: In vitro activity (cAMP accumulation, LANCE cAMP kit) in CHO cells expressing human GLP-1 receptor; type: cell-based; set-up: expressed in transfected cells; host or cells: Chinese hamster ovary (CHO); details: long-acting conjugate, relative potency from cAMP EC50 compared to human GLP-1
Procedure: as §1, §2
as §3, with “activity of each” for “activity”, “GLP-1,” for “GCG,”, “GLP-1” for “GCG”

hyperlipidemia hamsters = experiment: Therapeutic effect on hyperlipidemia in fructose-fed hyperlipidemia hamsters; type: in vivo, Golden Syrian hamsters; details: 219.2 nmol/kg, QW; comparative example; FIG. 1
From the text: Golden Syrian hamsters (hereinafter referred to as hyperlipidemia hamsters) were fed with fructose for 2 weeks to induce a hyperlipidemia model. Among the triple agonists prepared in Example 1, SEQ ID NO: 42 (1.6 nmol/kg, 3.1 nmol/kg, Q2D) was selected, and the long-acting conjugate of the triple agonist having SEQ ID NO: 42 was repeatedly administered to the hamsters induced with hyperlipidemia for 3 weeks by subcutaneous administration. As a comparative example, therapeutic effects of evolocumab (219.2 nmol/kg, QW), as a conventional therapeutic agent, on hyperlipidemia were measured.

human GLP-1 receptor, sequence (P43220 24-463): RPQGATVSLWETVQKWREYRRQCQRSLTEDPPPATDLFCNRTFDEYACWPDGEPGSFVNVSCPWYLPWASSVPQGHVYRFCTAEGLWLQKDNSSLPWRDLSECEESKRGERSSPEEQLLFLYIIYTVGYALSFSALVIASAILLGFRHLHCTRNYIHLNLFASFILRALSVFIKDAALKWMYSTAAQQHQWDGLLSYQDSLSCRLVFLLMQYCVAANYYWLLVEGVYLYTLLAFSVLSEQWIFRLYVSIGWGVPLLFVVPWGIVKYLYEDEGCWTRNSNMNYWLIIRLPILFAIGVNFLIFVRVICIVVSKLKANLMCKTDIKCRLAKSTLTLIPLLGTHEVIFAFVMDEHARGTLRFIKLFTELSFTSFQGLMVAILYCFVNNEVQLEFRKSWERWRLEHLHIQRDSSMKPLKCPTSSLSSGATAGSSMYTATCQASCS

Molecule: 21 (Y[Aib]QGTFTSDYSKYLDECRAKEFVQWLLDHHPSSGQPPPS; bridge 16-20) [compound 21]
- In vitro activity relative to native peptide (%) vs. Glucagon (human GCG receptor): 1.6%
- In vitro activity relative to native peptide (%) vs. GIP (human GIP receptor): 0.2%
- In vitro activity relative to native peptide (%) vs. GLP-1 (human GLP-1 receptor): 0.1%

Molecule: 22 (Y[Aib]QGTFTSDYSKCLDEKRAKEFVQWLLDHHPSSGQPPPS; bridge 16-20) [compound 22]
- In vitro activity relative to native peptide (%) vs. Glucagon (human GCG receptor): 0.9%
- In vitro activity relative to native peptide (%) vs. GIP (human GIP receptor): 0.5%
- In vitro activity relative to native peptide (%) vs. GLP-1 (human GLP-1 receptor): 0.1%

Molecule: 77 (Y[Aib]QGTFTSDYSKYLDEKAAKDFVQWLLDHHPSSGQPPPSC; bridge 16-20) [compound 77]
- In vitro activity relative to native peptide (%) vs. Glucagon (human GCG receptor): 1.7%
- In vitro activity relative to native peptide (%) vs. GIP (human GIP receptor): 6.6%
- In vitro activity relative to native peptide (%) vs. GLP-1 (human GLP-1 receptor): 6.7%

B1: evolocumab (antibody, chains of the INN, looked up, V domains shown)
VH: EVQLVQSGAEVKKPGASVKVSCKASGYTLTSYGISWVRQAPGQGLEWMGWVSFYNGNTNYAQKLQGRGTMTTDPSTSTAYMELRSLRSDDTAVYYCARGYGMDVWGQGTTVTVSS
VL: ESALTQPASVSGSPGQSITISCTGTSSDVGGYNSVSWYQQHPGKAPKLMIYEVSNRPSGVSNRFSGSKSGNTASLTISGLQAEDEADYYCNSYTSTSMVFGGGTKLTVL
notes: conventional therapeutic agent for hyperlipidemia
- effects on total blood cholesterol level and blood LDL level (hyperlipidemia hamsters): negligible effects

Continued, values first:

- In vitro activity relative to native peptide (%) vs. Glucagon (human GCG receptor): 23.1%
- In vitro activity relative to native peptide (%) vs. GIP (human GIP receptor): 1.2%
- In vitro activity relative to native peptide (%) vs. GLP-1 (human GLP-1 receptor): 3.1%
Molecule: 42 (Y[Aib]QGTFTSDYSKYLDEKRAKEFVQWLLDHHPSSGQPPPSC; bridge 16-20) [compound 42]

- In vitro activity relative to native peptide (%) vs. Glucagon (human GCG receptor): 13.5%
- In vitro activity relative to native peptide (%) vs. GIP (human GIP receptor): 0.6%
- In vitro activity relative to native peptide (%) vs. GLP-1 (human GLP-1 receptor): 2.1%
Molecule: 43 (Y[Aib]QGTFTSDYSKYLDEKRAKEFVQWLLDHHCSSGQPPPS; bridge 16-20) [compound 43]

- In vitro activity relative to native peptide (%) vs. Glucagon (human GCG receptor): 6.9%
- In vitro activity relative to native peptide (%) vs. GIP (human GIP receptor): 0.7%
- In vitro activity relative to native peptide (%) vs. GLP-1 (human GLP-1 receptor): 15.4%
Molecule: 50 (H[Aib]QGTFTSDYSKYLDEKRAKEFVQWLLDHHPSSGQPPPSC; bridge 16-20) [compound 50]

- In vitro activity relative to native peptide (%) vs. Glucagon (human GCG receptor): 4.0%
- In vitro activity relative to native peptide (%) vs. GIP (human GIP receptor): 0.3%
- In vitro activity relative to native peptide (%) vs. GLP-1 (human GLP-1 receptor): 0.3%
Molecule: 96 (Y[Aib]QGTFTSDYSKYLDEKRAKEFVQWLLDHCPSSGQPPPS; bridge 16-20) [compound 96]
